The record followed here is paper PMC12629983, “Nanobody-based recombinant antivenom for cobra, mamba and rinkhals bites” (Nature, 2025).

Common to all, as to conditions: both partners purified
The target in one experiment is T1, PLA2-3 (Naja nubiae (Egypt, L1342), fraction …, UniProt P14556).
T1 construct: also called basic phospholipase A2 nigexine (P14556)
Description: cryo-EM structure.

In a further experiment the target is T2, KUN-1 (Dendroaspis jamesoni (L1308, Cameroon), …, biotin (EZ-Link NHS-PEG4-Biotin, amine coupling)).
T2 construct: source: venom fraction isolated from whole venom (Latoxan) by RP-HPLC; biotinylated
T2 chain: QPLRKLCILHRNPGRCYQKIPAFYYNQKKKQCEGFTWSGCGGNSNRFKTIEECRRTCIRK
The experiment in a line: BLI; […] (0.5 µg/ml) […], pH 7.2; 600 s association, 600 s dissociation; global 1:1 fit. Background: BLI is a label-free optical method that tracks binding on a fibre tip over time.

Experiment [1] concerns the target T3, KUN-2 (Dendroaspis polylepis (L1309), fraction …, biotin (EZ-Link NHS-PEG4-Biotin, amine coupling)).
T3 construct: source: venom fraction isolated from whole venom (Latoxan) by RP-HPLC; biotinylated
T3 chain: T2 chain
The description is as above.

For experiment [2], the target named is KUN-2 (Dendroaspis polylepis (L1309), UniProt P00979, biotin (EZ-Link NHS-PEG4-Biotin, amine coupling)). The experiment in a line: BLI; […], pH 7.2; 600 s association, 600 s dissociation; global 1:1 fit.
Another experiment concerns the target T4, Og XI-1 (Dendroaspis jamesoni venom (L1308); …).
T4 construct: source: venom fraction isolated from whole venom (Latoxan) by RP-HPLC; biotinylated
T4 chain: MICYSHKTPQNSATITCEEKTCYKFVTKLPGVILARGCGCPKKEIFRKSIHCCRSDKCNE
Description: BLI; […] (0.5 µg/ml) […], pH 7.2; 600 s association, 600 s dissociation; global 1:1 fit.

The target of another experiment is T5, Og XI-2 (Dendroaspis viridis, UniProt P01405).
T5 construct: source: venom fraction isolated from whole venom (Latoxan) by RP-HPLC; biotinylated
The experiment is described as above.

Experiment [3] has as its target protein of Hemachatus haemachatus PRINTED:77012629983_21 (Hemachatus haemachatus, fraction Hh9 …). The experiment is described as above.
Experiment [4] addresses T6, Cardiotoxin (P01468) from N. pallida (Naja pallida, UniProt P01468).
T6 construct: also called cardiotoxin (UniProt: P01468); source: bought: Latoxan (lyophilized)
The experiment in a line: crystal structure.

For the next experiment, the target named is CTx-10 (Naja pallida (Kenya, L1321)); Latoxan …, UniProt P01468, biotin (EZ-Link NHS-PEG4-Biotin, amine coupling)). The experiment in a line: BLI; […], pH 7.2; 600 s association, 600 s dissociation; global 1:1 fit.
Chain of CTx-10 (Naja pallida (Kenya, L1321)); Latoxan …, UniProt P01468, biotin (EZ-Link NHS-PEG4-Biotin, amine coupling)) (P01468 whole entry, looked up): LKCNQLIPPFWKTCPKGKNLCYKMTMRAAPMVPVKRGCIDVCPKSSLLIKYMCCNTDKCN
For a further experiment, the target named is T7, sNTx-1 (Dendroaspis jamesoni (L1308, Cameroon), …).
T7 chain: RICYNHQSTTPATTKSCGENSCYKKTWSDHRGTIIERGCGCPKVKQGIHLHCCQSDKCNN
Description: BLI; […] (0.5 µg/ml) […], pH 7.2; 600 s association, 600 s dissociation; global 1:1 fit.

For the next experiment, the target named is T8, sNTx-5 (Hemachatus haemachatus (L1311), …, biotin (EZ-Link NHS-PEG4-Biotin, amine coupling)).
T8 chain: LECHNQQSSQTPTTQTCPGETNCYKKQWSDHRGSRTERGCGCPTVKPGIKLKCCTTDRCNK
The experiment is described as above.

For the next experiment, the target named is T9, sNTx-6 (Naja melanoleuca (L1318), fraction Nm3, biotin (EZ-Link NHS-PEG4-Biotin, amine coupling)).
T9 chain: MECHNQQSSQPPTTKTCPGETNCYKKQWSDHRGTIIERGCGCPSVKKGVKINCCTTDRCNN
Described as above.

The next experiment addresses T10, sNTx-7 (Naja annulifera (L1314), fraction Nan3, biotin (EZ-Link NHS-PEG4-Biotin, amine coupling)).
T10 chain: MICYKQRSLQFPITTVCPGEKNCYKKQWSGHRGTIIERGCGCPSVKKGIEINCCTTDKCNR
The experiment is described as above.

Experiment [5] concerns the target T11, α-short-chain neurotoxin (P01426) from N. pallida (Naja pallida, UniProt P01426).
T11 construct: also called short neurotoxin 1 (P01426); source: bought: Latoxan (lyophilized)
The experiment in a line: crystal structure.

For a further experiment, the target named is T12, lNTx-3 (Dendroaspis polylepis (L1309), fraction …, biotin (EZ-Link NHS-PEG4-Biotin, amine coupling)).
T12 chain: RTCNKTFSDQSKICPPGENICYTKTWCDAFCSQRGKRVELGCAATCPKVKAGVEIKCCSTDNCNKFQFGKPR
The experiment in a line: BLI; […] (0.5 µg/ml) […], pH 7.2; 600 s association, 600 s dissociation; global 1:1 fit.

The target in the next experiment is T13, lNTx-7 (Naja kaouthia (Latoxan L8114), biotin (EZ-Link NHS-PEG4-Biotin, amine coupling)).
T13 chain: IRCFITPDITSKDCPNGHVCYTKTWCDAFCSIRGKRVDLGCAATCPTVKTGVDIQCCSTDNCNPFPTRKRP
The experiment is described as above.

T11 sequence (P01426 whole entry, one chain of several): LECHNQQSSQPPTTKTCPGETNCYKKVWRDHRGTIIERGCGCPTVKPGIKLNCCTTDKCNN
T1 sequence (P14556 whole entry): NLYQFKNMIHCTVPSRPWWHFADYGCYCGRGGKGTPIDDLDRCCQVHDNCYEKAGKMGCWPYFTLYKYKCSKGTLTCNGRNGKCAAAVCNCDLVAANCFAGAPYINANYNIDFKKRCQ
T6 sequence (P01468 whole entry, looked up, one chain of several): as the sequence (P01468 whole entry, looked up) above

B1: VHH20 a-PLA2 (VHH)
VHH: QVQLQESGGGLAQAGGSLRLSCAASGLAFSNYSMGWARQAPGKEREFVAAISWSHQPTYYADSVKGRFTISRDNAKNTLYLQMNSLKPEDTAVYYCAADSRPNSYRLGGPGNYWGQGTQVTVSS
notes: also called anti-PLA2 VHH
For B1, in the experiment with PLA2-3, the binding result is on record as “binds”.

B2: VHH17 a-KUN (VHH)
VHH: QVQLQESGGGLVQPGGSLRLSCITSGSNFDDLSVGWFRQAPGKEREGVSCFSSSDGSTYYVDSVKGRFTMSRDNAKNTVYLQMNNLKPEDTAVYYCTADGFPYPSETMCSIPGGPDSVAWGQGTQVTVSS
notes: source: E. coli BL21 (DE3), purified (Ni resin)
In the experiment with KUN-1, B2 had a Kd of 0.0405 nM, a koff of 8.43e-07 s⁻¹ and a kon of 20800 M⁻¹ s⁻¹. In the experiment with KUN-2 [1], the Kd was < 0.001 nM, the dissociation rate constant (koff) is < 1e-07 s⁻¹ and the kon is 86900 M⁻¹ s⁻¹.

B3: VHH17 a-KUN (VHH)
VHH: B2 VHH
notes: source: E. coli BL21 (DE3), purified (Ni-NTA)
On to B3, for which, in the experiment with KUN-2 [2], the binding result is on record as “binds”.

B4: VHH15 a-Og XI (VHH)
VHH: QVQLQESGGGAVPAGGSLTLSCAASGRTLSDYTMGWFRQAPGKEREIVGAISWNDGYTYYDDSVKGRFTISRDNAKNTMYLQMNSLKPEDTAVYYCAAQAPEMVRSGNFGSWGPGTQVTVSS
notes: as for B2
Regarding B4, in the experiment with Og XI-1, the Kd amounted to 2.19 nM, the off-rate (koff) was determined as 0.000161 s⁻¹ and the association rate constant (kon) stood at 73400 M⁻¹ s⁻¹. In addition, in the experiment with Og XI-2, the Kd was found to be 2.16 nM, the off-rate (koff) stood at 0.000122 s⁻¹ and the kon is 56700 M⁻¹ s⁻¹.

B5:  (VHH)
VHH: QVQLQESGGGLVQAGGSLRLSCAAPGFTFDNYAIGWFRQAPGKEREAVSMIDVNDGDTYYADSVKGRFATSIDNARITAYLQMNSLKPEDTAVYYCAAGEQGGIETEDDYGMDYYGKGTQVTVSS
notes: also called VHH4; source: E. coli BL21 (DE3), purified (Ni resin)
On to B5, for which the binding result in experiment [3] was “no binding (tested: 480 nM)”.

B6:  (VHH)
VHH: QVQLQESGGGLVQAGGSLRLSCAASGRTFSSYAMAWFRQAPGKEREFVASISWNGDSTYYADSVKGRFTISGDNAKNTWYLQMKSLKPEDTAVYYCNTEDEGSGTYYEWGQGTQVTVSS
notes: also called VHH1; source: E. coli BL21 (DE3), purified (Ni resin)
On to B6, for which, in [3], the binding result is reported as “no binding (tested: 480 nM)”.

B7:  (VHH)
VHH: B6 VHH
notes: also called anti-CTx VHH; source: E. coli BL21 (DE3), purified (Ni-NTA)
B7: the binding result (in experiment [4]; with CTx-10) was “binds” throughout.

B8: VHH5 a-sNTx (VHH)
VHH: QVQLQESGGGLVRPGGSLRLSCAVSGVSESIFANYVVGWFRQQDSGTGRDLVAQSSSDDEYNHVSGSVKGRFTISRDNAKNTVSLQMDNLKPEDTAIYICAAAIGPGDNYIYWGQGTQVTVSS
notes: as for B2
For B8, the dissociation constant Kd came to 1.9 nM with sNTx-1, 16.9 nM with sNTx-5, 5.46 nM in the experiment with sNTx-6 and 0.388 nM in the experiment with sNTx-7. Moreover, the off-rate (koff) was 4.72e-05 s⁻¹ in the experiment with sNTx-1, 0.000631 s⁻¹ with sNTx-5, 0.000163 s⁻¹ with sNTx-6 and 1.44e-05 s⁻¹ with sNTx-7. Also, the kon in the experiment with sNTx-1 is 24900 M⁻¹ s⁻¹; with sNTx-5, 37400 M⁻¹ s⁻¹; with sNTx-6, 29800 M⁻¹ s⁻¹; with sNTx-7, 37100 M⁻¹ s⁻¹.

B9: VHH5 a-sNTx (VHH)
VHH: B8 VHH
notes: also called anti-sNTx VHH; source: E. coli BL21 (DE3), purified (Ni-NTA)
In the case of B9, the binding result in experiment [5] is listed as “binds”.

B10: VHH9 a-lNTx (VHH)
VHH: QVQLQESGGGLVQPGGSLRLSCTASGSIFSTVNTMGWYRQAPGKQRELVAAITGGGSTNYADSVKGRFTISRDNVENTVHLRMNALKPEDTAVYYCNFQEYCSAYGCYELPHDYWGQGTQVTVSS
notes: as for B2
In the experiment with lNTx-3, B10 showed a Kd of 1.18 nM, an off-rate constant (koff) of 0.000203 s⁻¹ and a kon of 173000 M⁻¹ s⁻¹. For the same molecule, in the experiment with lNTx-7, the affinity, expressed as Kd, was 0.753 nM; the koff was 2.71e-05 s⁻¹; the on-rate constant (kon) turned out to be 36000 M⁻¹ s⁻¹.

Broadly, the Kd is a measure of binding affinity in units of concentration. High values mean weaker binding, low ones tighter binding. By koff is commonly meant a measure of how fast the partners let go of each other. The term kon denotes the second-order rate constant of association.
